In article PMC9606859, “Chemical Synthesis of Trans 8-Methyl-6-Nonenoyl-CoA and Functional Expression Unravel Capsaicin Synthase Activity Encoded by the Pun1 Locus” (Molecules, 2022):

Substrate: CC(C)/C=C/CCCCC(=O)SCCNC(=O)CCNC(=O)[C@H](O)C(C)(C)COP(=O)(O)OP(=O)(O)OC[C@H]1O[C@@H](n2cnc3c(N)ncnc32)[C@H](O)[C@@H]1OP(=O)(O)O
Assay: HPLC/MS capsaicin formation
Format: biochemical, Capsicum chinense
Details: co-substrate vanilloylamine (saturating per Figure S3), 50 mM TRIS/HCl pH 7.5, 150 mM NaCl, 10% glycerol, 1 mM TCEP, partly purified enzyme, single measurement, three technical replicates

B1: recombinant capsaicin synthase (AT3, Pun1) (Capsicum chinense) (protein)
chain: MAFALPSSLVSVCDKSFIKPSSLTPSTLRFHKLSFIDQSLSNMYIPCAFFYPKVQQRLEDSKNSDELSHIAHLLQTSLSQTLVSYYPYAGKLKDNATVDCNDMGAEFLSVRIKCSMSEILDHPHASLAESIVLPKDLPWANNCEGGNLLVVQVSKFDCGGIAISVCFSHKIGDGCSLLNFLNDWSSVTRDHTTTTLVPSPRFVGDSVFSTKTYGSLTTPQILSDLNECVQKRLIFPTDKLDALRAKVAEESGVKNPTRAEVVSALLFKCATKASSSMLPSKLVHFLNIRTMIKPRLPRNTIGNLSSIFSIEATNMQDMELPTLVRNLRKEVEVAYKKDQVEQNELILEVVESMREGKLPFENMDGYENVYTCSNLCKYPYYTVDFGWGRPERVCLGNGPSKNAFFLKDYKAGQGVEARVMLHKQQMSEFERNEELLEFIA
notes: full length, codon-optimized 1332 bp NdeI/XhoI fragment in pET-16b, His-tag (2 kDa) kept; E. coli SoluBL21; partly purified (Ni-NTA, SEC); monomer
Km: 480 ± 240 µM
